In US20190194323A1 (ALLAKOS, published 2019):
Residue numbers refer to the chain shown, from its start. Blank lines part the entries; values can stand above or below the molecule they belong to.

Experiments:
[1] = target: Siglec-7 on primary human cells (NK cells, CD8+ tumor-infiltrating T cells) (human) (UniProt Q9Y286)
[2] = target: Siglec-7 on primary human cells (NK cells, CD8+ tumor-infiltrating T cells) (human) (UniProt Q9Y286); remark: listed apart in the source
Siglec-7-ECD [3] = target: T1, Siglec-7-ECD (human, UniProt Q9Y286 19-353); assay: bio-layer interferometry (ForteBio): antibody captured on the sensor, Siglec-7-ECD as analyte, 1:1 global fit
T1 construct: also called p75; AIRM
T1 sequence (Q9Y286 19-353 limits assumed): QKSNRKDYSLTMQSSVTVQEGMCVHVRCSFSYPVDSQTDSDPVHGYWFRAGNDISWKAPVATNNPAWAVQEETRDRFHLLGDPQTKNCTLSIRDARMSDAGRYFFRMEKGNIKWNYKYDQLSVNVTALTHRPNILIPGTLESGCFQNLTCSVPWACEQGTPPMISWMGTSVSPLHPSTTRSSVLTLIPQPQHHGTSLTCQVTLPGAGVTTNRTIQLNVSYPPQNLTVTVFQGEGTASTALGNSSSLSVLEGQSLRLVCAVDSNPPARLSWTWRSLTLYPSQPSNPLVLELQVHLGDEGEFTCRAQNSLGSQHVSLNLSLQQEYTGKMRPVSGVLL
Method: A panel of antibodies was evaluated for binding to Siglec-7. The results identified anti-Siglec-7 antibodies that have improved KD values compared to commercially available anti-Siglec-7 antibodies (FIG. 7).
Antibody binding analysis was carried out by bio-layer interferometry (ForteBio). […] Antibodies were captured on anti-mouse kinetic sensors at 0.5 ug/mL; Siglec-7-ECD was used as analyte and diluted in assay buffer from 50 nM to 1.56 nM with 2× dilutions. Two-minute associations were conducted, followed by 10-minute dissociations. Results were determined relative to a control empty reference AHC sensor, and analyzed using ForteBio analysis software with 1:1 global fit parameters.

Siglec-7-ECD [4] = target: T1, Siglec-7-ECD; assay: value quoted in the legend box of the internalization graph; same value as in the Figure 7 table (bio-layer interferometry)
Siglec-7-ECD-Fc = target: T2, Siglec-7-ECD-Fc (human, UniProt Q9Y286 19-353); assay: ligand blocking on cells, flow cytometry: antibody dilutions pre-mixed with 10 nM Siglec-7-ECD-Fc, then binding of Siglec-7-ECD-Fc to Siglec-7 ligands on A375 melanoma cells
T2 construct: also called recombinant Siglec-7-Fc fusion protein; Siglec-7-Fc; not shown: human Fc (huFc)
T2 sequence (Q9Y286 19-353): as the sequence (Q9Y286 19-353 limits assumed) above
Method: Recombinant Siglec-7-Fc was added to A375 cells in the presence of anti-Siglec-7 antibodies at increasing concentrations and binding of the complex was detected on the cell surface.
Human melanoma cell line A375, which expresses high level of ligands for Siglec-7, was used to determine the blocking activity of anti-Siglec-7 antibodies in a cell based assay. Two-fold serial dilutions of anti-Siglec-7 antibodies (40 nM to 40 pM) were combined with 10 nM Siglec-7-ECD-Fc in FACS buffer (PBS/2% BSA) and incubated on ice for 30 minutes. 2.5×10e4 A375 cells per well were added to round bottom 96-well tissue culture plates in FACS buffer, plates were centrifuged at 400 g for 2 min, supernatant was removed and cells were re-suspended in 100 ul of the antibody-Siglec-7 complexes. After a 1 hour incubation on ice, cells were washed twice and incubated for 30 minutes with goat anti-human F(ab′)₂ fragment conjugated to AF647 (Jackson IR labs) at 1 ug/ml in FACS buffer. After two more washes, cells were fixed in PBS/2% PFA and acquired on a Novocyte flow cytometer (ACEA biosciences). IC₅₀ values for blocking were determined based on plotting mean fluorescence in the APC channel and analysis using Prism Graphpad software.

[5] = target: T3, Siglec-7 on primary human cells (NK cells, CD8+ tumor-infiltrating T cells) (human, UniProt Q9Y286 19-467); assay: cell-based or functional assay
T3 sequence (Q9Y286 19-467 limits assumed): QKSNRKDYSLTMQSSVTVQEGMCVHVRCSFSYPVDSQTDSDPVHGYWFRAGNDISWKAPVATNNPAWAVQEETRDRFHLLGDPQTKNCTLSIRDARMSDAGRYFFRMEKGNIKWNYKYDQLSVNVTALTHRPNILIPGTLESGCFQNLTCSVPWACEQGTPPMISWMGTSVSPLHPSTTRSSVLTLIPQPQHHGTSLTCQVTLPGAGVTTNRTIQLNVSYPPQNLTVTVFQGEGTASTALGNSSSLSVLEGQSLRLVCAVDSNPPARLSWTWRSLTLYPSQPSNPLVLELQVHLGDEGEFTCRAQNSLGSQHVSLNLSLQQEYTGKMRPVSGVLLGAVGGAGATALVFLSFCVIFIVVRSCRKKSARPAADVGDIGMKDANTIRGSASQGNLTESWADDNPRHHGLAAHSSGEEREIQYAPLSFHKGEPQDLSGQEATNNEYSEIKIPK

[6] = target: T3, Siglec-7 on primary human cells (NK …); assay: cell-based or functional assay; remark: listed apart in the source
Siglec-7-ECD [7] = target: T1, Siglec-7-ECD; assay: monovalent Fab; bio-layer interferometry (ForteBio) per Methods
Siglec-7-ECD [8] = target: T1, Siglec-7-ECD; assay: monovalent Fab; bio-layer interferometry (ForteBio) per Methods; No. 12 of Table 1 (second entry of the pair; No. 2 gives 250-500)
Siglec-7-ECD [9] = target: T1, Siglec-7-ECD; assay: monovalent Fab; bio-layer interferometry (ForteBio) per Methods; lower end of the range 250-500; No. 20 of Table 1
Siglec-7-ECD [10] = target: T1, Siglec-7-ECD; assay: monovalent Fab; bio-layer interferometry (ForteBio) per Methods; upper end of the range 250-500; No. 20 of Table 1
Siglec-7-ECD [11] = target: T1, Siglec-7-ECD; assay: monovalent Fab; bio-layer interferometry (ForteBio) per Methods; No. 13 of Table 1 (second entry of the pair; No. 6 also gives >500)

Sequence of Siglec-7 on primary human cells (NK cells, CD8+ tumor-infiltrating T cells) (human) (Q9Y286 19-467 limits assumed): as above

- IC50 of Siglec-7 internalization on NK cells (24 h, PBMC; remaining surface Siglec-7 stained with 4B12-AF647) [1]: 469 pM
- IC50 (read off the curve) [2]: 0.07 µg/mL
- Kd (Siglec-7-ECD [3]): 422 pM
- Kd (Siglec-7-ECD [4]): 422 pM
- IC50 (Siglec-7-ECD-Fc): 4260 pM
Molecule: anti-Siglec-7 antibody clone S7.7 (BioLegend)

- IC50 of Siglec-7 internalization on NK cells (24 h, PBMC; remaining surface Siglec-7 stained with 4B12-AF647) [5]: 13 pM
- IC50 (read off the curve) [6]: ~0.001 µg/mL
- Kd (Siglec-7-ECD [3]): 41 pM
- Kd (Siglec-7-ECD [4]): 41 pM
- IC50 (Siglec-7-ECD-Fc): 8500 pM
B1: monoclonal antibody 3F1 (antibody, V domains shown)
VH: EFQLQQSGPEMVKPGASVKMSCKASGDSFTDYKINWVKQNNGKSLEWIGVINPDSGTTSYNQIFEGKATLTVDQSSSTAYMQVNRLTSEDSAVYYCTTWDDYSFYAMDYWGQGTSVTVSS
VL: DVLMTQTPLSLPVSLGDQASISCRSSQNIVHSNGNTYLEWFLQKPGQSPKLLIYKVSNRFSGVPDRFSGSGSGTDFTLKISRVEAEDLGVYYCFQGSHIPWTFGGGTKLEIK

- Kd (Siglec-7-ECD [7]): 250 to 500 pM
- Kd (Siglec-7-ECD [8]): > 500 pM
B2: humanized 16H11-derived Fab, VH AK417-17 / VL AK418-2 (Fab, V domains shown)
VH: QVQLVQSGAEVKKPGSSVKVSCKASGYDFSNFWMNWVRQAPGQGLEWMGGIYPGDGEINYAQKFQGRVTITADESTSTAYMELSSLRSEDTAVYYCARDDYLRAMDIWGQGTMVTVSS
VL: DIQMTQSPSSLSASVGDRVTITCRASGNIHNYLAWYQQKPGKAPKFLLYSAKRLESGVPSRFSGSGSGTDYTLTISSLQPEDFATYYCQHFWSSPYTFGGGTKVEIK
notes: Measured as monovalent Fab; also called No. 2; No. 12

- Kd (Siglec-7-ECD [7]): > 500 pM
- Kd (Siglec-7-ECD [9]): ≥ 250 pM
- Kd (Siglec-7-ECD [10]): ≤ 500 pM
B3: humanized 16H11-derived Fab, VH AK417-17 / VL AK435-7 (Fab, V domains shown)
VH: B2 VH
VL: B2 VL with G27Q, S56D
notes: Measured as monovalent Fab; also called No. 14; No. 20

- Kd (Siglec-7-ECD [7]): > 500 pM
- Kd (Siglec-7-ECD [11]): > 500 pM
B4: humanized 16H11-derived Fab, VH AK417-17 / VL AK419-2 (Fab, V domains shown)
VH: B2 VH
VL: B2 VL with G27Q
notes: Measured as monovalent Fab; also called No. 6; No. 13
